# Assay results from paper PMC11533547 (Poultry Science, 2024).
# B1: chicken PD-1 protein (receptor)
# chain: MALGTSRTMWDSTEAALVVLCVLLLCCNPPLAGCHQVTLFPATLTRPAGSSATFICNISMENSSLEFNLNWYQKTNNSNPQKIAGIIRNIPQKKMEKYRLFNNTPVFKMEILNLHQNDSGFYYCGLITFSRSDKVVESSHSQLVVTEAPEKTNTIDEPSEEESSPPDHIKAVLLGTLLLAGVIVLLLFGYIIINNRRADVQKPSSGNTLAEVKPPVVPVPTVDYGVLEFQRDPHSQVPLETCPAEQTEYATIVFPEEKPITPERGKRHKDERTWQLPSQPC
# modifications: labeled using the BLUE-NHS protein labeling kit (NanoTemper)
# Tests used:
# chicken PD-1 protein = biological target: B1; assay: MST
# chicken PD-L1 protein = chicken PD-L1 protein (chicken); assay: MST
Kd (chicken PD-1 protein),Kd (chicken PD-L1 protein),Binder
9.73 nM,,DAGLYHCLIEYGGADYKTINLK [peptide gDK2-3]
,2.65 nM,B1
